In the NTF2 design screens of Basanta et al. (2020):

Test: protease stability score; higher = more stable; yeast display proteolysis, trypsin and chymotrypsin;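 further: log10 excess protease needed over predicted unfolded state with 0 meaning unfolded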

DSKQRAKEFVKEFQRVLQKGDPDQAEKMADKDVRINVGDKTYHGREEMWKMAQEWQRKYDEMSITVSRIQTRPGRIVANAKLKLDNNGTTDDTHLVIVVREHNGHYRAVHIRLG
protease stability score: 0.992

DSKVRRVAERFMHAIQEGNEDDVRKLADKNVQIHVGEKELRGRDQLAKDVSDRTRQIRLHIKHLSIHVQGDKVIVRFDVVETHNGKPHRYRAKAEMRVRNGRVTRYTVKHDG
protease stability score: 0.633

DSNALSRAMEYLRVVEQGDPKRAKQLFDPNARFIYGDRTVHGKDRIADMLRHERDDMRLQIDDLKTTVQGDKVVVRYKAVRERNGHPETFRAEFRVEFNNGKIEQQNYQVHK
protease stability score: 0.25

DSQERADDWMRDFNRAVQHGDPTQLTDLMDKDANARIGDTSVHGRHHLVTRWQQFRTDVDRVDIHIVSIEVQGDKIHIDMTFQADVNGRRKEDHIVIIAVDRNGKVKVQQIQDK
protease stability score: -0.337

DSQKERDLVEHFLRNFRTGDPDKLKTMADPNAHMRVGDKNVHGREDLSRWVQEVRDRADHIDIDTFSVSNGRATATIVMRVDGKEVRFEVVITMENGKIKSMEQQDR
protease stability score: 0.726

DSRAANLFSHAWKQVETGNNHNFRKLLDPNARRKVGDQTIDGREEMTEDNKRKRKEMHRTIETMSFEDHGDKAVFYMQYVVHHNGEPREIRNRVIIKVRGDRIKEVEVRKDG
protease stability score: 0.006

DSRAQSLFHKWMDALRTGDRRKLSELADPNVSITYGDKTIHGREENMKEAHRLVNQMRVDFDIKSIENEPNRVIIRMRVEYDVNGRPFDDEVVVELRAKGDHIKEVRVRIDPRQVKELSG
protease stability score: 0.907

DSRAVHLAKNFMSALKTGDHDRARDNLDKDARISIGDKVWHGMDEAVHDIKREKEEMRIEFRKVDAKDSNGKVRMDADVVFNHDGRPDKFRLDADIEVHNGRIHVLDVENSK
protease stability score: 0.264

DSRDNRAATRLRQAHESGDPDQIRDNVDPNATIQVGDKSIHGMESWAREEHKKHRELKVEIKDFRQSASNGHVKATIDRVDNHNGRPQRTTVDIHIVFHNGKVKSIDVKTTK
protease stability score: -0.481

DSREAKRAETFFRLVQRGDSRKLQEYMDPNARINIGEKRIHGRENYAKEVKDRREHIRVDIKSLEASDTNGRIHVEVHFEHSHNGRPDQQTMELRITMHNGRAQEITQHETK
protease stability score: -0.223

DSREEAKRFFTKMVEIFKTGDEDEAHEMADKNARVHVGDKTVRGREQYTRKMSKEVKQVDHAEYRIQDVEVQGEHIRITFVRRIDTNGRTNEQHLVMEAEKHNGRIYIKQIHES
protease stability score: -0.159

DSRELDEFIHKFAQVIRKGNPRDAMKNVDKDARAVVGNKHINGRDQFHKWIEDLNKTIDHFEIVHVEVEGDRALMDVQVNINGKTRRIRLTAHVHNGRFKDVRVDPENERKLNQ
protease stability score: 0.011

DSREQEDFRRKVETNNPDQEKKMFDENARLQVGDKTYHGREKVFDFLKTLMDQVDHVHVRDMHVKGDEYSFDIILDINGRRIHITFLARVHNGHIKSQSLRATDESVKDEIEELQG
protease stability score: 0.404

DSRSNAQRVLDAINQLVHGNPQEFNKNADPNVRATYGDKEVHGREEVKKHVDSLMKKVDHVQVKNYQITGDKARVQVVLDINGRTRHVQINAHAKNGRIKHVEIQQQ
protease stability score: 0.895

DSTNVEILKEYVENQRRGNEDQLRRLMDPNVHVQVGDKQLHGDRQITDEFRRQQEHLRFSIKTYDYRDQGDKVRAHIVYEQMHNGRPETVRHNMVAEIHNGNIKYLQIESDQ
protease stability score: -0.301

DSTQVRILEEMNRAIERGDPERVYQLADPNARFQIGDTQIHGMESFMKHVEETVRHMRISIRSLHADDEGDKMKVTFTFVVNRDGQPRRRVVTATAHANGDQVKYLEWRDDE
protease stability score: 0.477

DTDAVKNFKEDLHAVRSGDPDRLLKMFDPNAKLQIGDKEVTGMDQYAKEVHNTRQEIRMSYELRDYKVDGDKIEADIRVQKDVNGRPYRDKVKVDIKVNNGRIKKARYQVDEDKEKQLQS
protease stability score: -0.126

DTDAVRRALKFIDAMQDGDPDKARELMDPNARVNIGDKEYHGMTSFVKDLKRLRDEIRVQYNIRDYNAQGEKIHVTVDVVFEHNGRPVDERFNVTIDIQGDKIKQVTAHRTK
protease stability score: 1.61

DTDDNRKAAENILTAIQSNDPDERQKNADENVKVNVGDNRISGRENMHEFMKRVWEDVDKITIRSYTFKGDKMTADIHLNFNGQTAKLNVDVNIHNGKAQEVSMDPKADRVVRT
protease stability score: 0.47

DTDDTEALRRFFDALHNGDPDKVDKNADKDVRFKVGDKEIHGREQLRRTVEQQKKEIRYEVDVKQISDHNGQVSVHAHFQENKNGKPKNVEVTAVAEAENGTLKQLEFNSDQ
protease stability score: -0.367

DTDKTARQLVRDLEKALQTGDPDKLAKLFDKDARINVGEKDYQGRERMQRNWRRDNTRIDHVSVDLKDMKIQGNKISVDMTIKFKVDGHHNSRVVVLLFDNDNGTVRAVENQQK
protease stability score: 0.16

DTEARKLIEELLRAVRDGDPDQVKQNADPNARVQYGDQTFHGMDRYAEWVEEMHKQARVSIEFDSFSFTGDKVQMHAKHVVEVNGKPQRDTVVIRAVVRGDKIRNIHFRMDEQRVRDQQS
protease stability score: 0.783

DTEDDHEFARKYVEVLESGDPKQWREMFDEDAKMRIGEKTFRGRDQIATWYERYRRQADHVEVKHVETRGEQFQFDFQVHVNGKHARYTLNIRVHNGKLVEVKFDPDQKKTMDK
protease stability score: 1.75

DTEDLNRLANTMASAIHHNDPDKIVKMFDPNARARVGDKSYHGREDLRKMVNEWHRQADDIHIQQVQVHNGRAYINFVRNVNGVHADLTAIITIENGRAEKMTLTYRNPDDEKKVQG
protease stability score: 0.279

DTEDNHKLREVIRTNNPQEIREMMDPNVKVRYGNKEIEGRDQAVKHEQDLQHRADRVKIEDMRVHGDKLVVVWSINIDGSEFRFSFEARIHNGKVKFAQIQFTDPDLERKFDDMLQ
protease stability score: 0.324

DTEELQRLLTLVETNDFETLAKQADENARADVGDHKITGREDITRWAKQLSDRIDHVEVRSLDIQGDKAVAVLQFHVNGRTMVFRVHISAHNGKVKHFQVKVRDENARKQLKRVVD
protease stability score: 0.147

DTEERAEDFMHIMQNAATHGDPNIQRHLADKHVRVEVGDKTVSGREEHKTEFDKRVKQYDSISVNMRKMEIDGDKARFNVEERYNTNGRNQHHDVKQQAIVQGDKVHLDRVDNK
protease stability score: -0.603

DTEEREKVMEIMRTGDPDKLHKLMDKNVKVVVGDKRYHGREMVEELVQKLKSQIDHIEVKDYTIQGDNLILNAVINVDGRSVELVIFVRVHNGRIKHMNFNVTDEEEQKKLDENLS
protease stability score: 1.34

DTEKLDRFAHEFVKVLREGDEDRMRKLADEDASMNIGDKEYRGREEVAKALREYRERYDHLQVDSIDVQGEHISVKAQVRIDGRRRRARFEVRMHNGRIKEVNFDPDLLKEQHT
protease stability score: 0.206

DTEKTTELKKMFDHEQEGNENHLMRMFDPNATVQVGDKRIHGREDLQRWLDRFRKNQRVNVRSITVDVQGERFRVEVEADAKHNGRPNQMHRSMEVEFHNGRIKRADFQTDG
protease stability score: 0.124

DTELKDQIKRFLSERNSGNPQKMVEQMDPNANMSVGDKSVRGREQVSEQAEREKRELHYRVRSVDISVNGDKVKVKINVEREHNGRPFTMTLDLTIRAHNGRLTRVEVSLSEDDKREIKR
protease stability score: 0.521

DTELTHELSHRIKDNNWEDLSKNADENVEFRVGNKEYHGKEEFQHLQENLKRQIDDVKIHSLTAQGDHLEADVVYNVNGRDLRFTFHMTVRNGKIKEMNASFRDESQVNTMLTVLN
protease stability score: -0.238

DTENEKLQRRFMKALKTNDPHRAREMADENAKVQVGDKRIHGMQTVVEDLEREWREQRNDVKVRSVSNEGNKVNMDATMKVEHNGKPKHFNVVYRATVHNGRIHELRVERDG
protease stability score: 0.088

DTENVKKATDYVHALNTGDEHRVKELMDPNARIRYGDKEVKGHDEIAKTLKTERDQSRVEFDIKRVEHQGNKVSIDLNFRKNQNGQPRSTKVNITVVFHNGKIKEINIQTDG
protease stability score: 1.59

DTEQLKVFKEFVDAHRHNNPEELKKQMDKDVHFRVGNKQIHGREKAAHYWETIMHEIRVEWKSIVMKDSNGKAKAKFRFVENVNGKPQENTYDLEFSARNGRINSITMRFDEDQQRHHKK
protease stability score: 0.345

DTERNAKEAVTRLKKVFTHNDPDKIASMFDENAHIEVGDKRYHGHEEVKRWADDMRNQYDHWDADVRSIDVHGDKVHVEAVITAERNGKTLERTFVVIFDRDNGQLRIHELRDQ
protease stability score: 0.926

DTESAQTFVDVLEEGDFDTLVNLMDKNARLQVGDTTFNGRENARHFFELMKDKVDHLKIDHYEIHGNHVNIDMKLNVNGKTVDVVVYVKFHNGRIQHLRIEARDPEDMRTFKENMR
protease stability score: 1.35

DTESLKKVEDVVNNNDKKKHERLLDKDVRIVVGDKEVRGREQAARDYKRFVNHADHIEIKRVRSNGDKLFIDRVVNFNGQTVHFVVTYVVKNGSIQEVSVKVTDKEHLKLYKEALR
protease stability score: 0.196

DTEVIHVLKRIMHAINEGDESQVRKNADPNVKVRVGNKSIHGREQLVEQMRRDVEEIRLEYKSFDAKDSDGHARARVKYQNEFNGKPQEKDDRATAVAHNGHLKSIRWRVPEDDLRDQDT
protease stability score: -0.014

DTEVQQRVEHYLRLREYNSPEHLIEMVDPNAKIEIGNKEFHGMENYAHTMRKRVEEWRLEIKHISVTIRNGRVVARIDQEVDIDGNPVRYTYKVVYDAHNGNIKHIKNDVDPRQQQQQHK
protease stability score: 0.176

DTHAVEVWRRVLRAKETGDEKTLEKNFDPNARFQVGDKTLHGMEQQVTENKRERDDLRVHVEIKEVKDQGDKAFVDMVMTAEVNGQPYRIRVEVVAVVRNGKIKELVINMDPRQQEQLDS
protease stability score: 0.28

DTHDEKHVAQNVVDALRRNDPDQLRRMMDPNVHFEVGDKTIHGREDAARQLKEIKKNVDHFQVDDVTMSNGRVHAIIRVEINGQERRNVVQADVKNGHVKFQRIKDQ
protease stability score: -0.084

DTHDVKRILDELKTNDEDMNRHLVDPNAKLRIGDKEIHGREELTEFYHRFHKQVDSQRIKDVRVHGNRFRVEFEAVFNGQTVEASYEATFHNGKATSLRYTATSNEELKNLQKVMD
protease stability score: 0.147

DTHKLREHARSMVEAMEDGDPQHLAKLMDENAKVTVGDKDVHGEEQAKRWAREWQKRFDHVEVDDLKVDNGRIRVKFHAQVNGREIFVIVKVEVRNGRIRSLSLEVRDEHVEKRLQD
protease stability score: 0.909

DTHNFKKYMELLKALETGDERTARKMADPNAEFVIGDKEWHGMEEFAQTRVEQFKEQSIEIKILDYKDKNGQVHIRYRIRVNRNGKPDEKEVVVRIENHNGRIHHVEYRDTG
protease stability score: 0.09

DTKERQNRAEEINKNFKEGNPHEYMSMLDKNASAQVGDKQVHGRERMSKRIEDIVRRADKLTIETFHVSGDKVEIVVQLIVNGTRVRMEVEIKFENGHAKHVEFNPEQDKQLKQ
protease stability score: 0.421

DTQALKHARSVLEDNDWDKLQKLADKDARATVGDTTYHGREDIQTWLKRAEETVDHVNIKSISIDEDSISVRFVMNVNGKTVEMVITIQLHNGRIKFLRIQARSEEQEKTIHEVVD
protease stability score: -0.051

DTQEKLKHWWKHVQENIKTGDEDRLHEMVDPNASVQVGDKELHGREKIATTYVELMSRVDHVRIQITELEVHGNDFDLTFNYEADVNGRKEHDHYRVVLQEHNGQLRLVQMSEG
protease stability score: 0.747

DTQKIVDDIAHEVVEVLKTGDPRKVVKLVDENARLQVGDKIVRGREDVKKRAEKENSRVDHREARVQEVTMHNGDVTIRFRVKDTHNGRSDSREYTIHLQEHDGKVFIQNMEDR
protease stability score: -0.261

DTRANEIWQDIVQALQTGDHERAIRLADPNVHFKVGDREVHGMTQFAHKQAQRHREARIELRVHSVRDRGDHVTVHYEMVVNVDGNPVKNTVTIYIVMRNGKLRSVEVSVDPRDVKRMRS
protease stability score: 0.108
